Measurements reported in patent US20230134571A1 (INTERNATIONAL AIDS VACCINE INITIATIVE, published 2023).
Where a chain is given by its changes, count along the chain named.

B1: ePGDM13 (antibody, V domains shown)
VH: QAQLVQSGPEVRKPGTSVKVSCKNPGNTLTTYDLHWVRQVPGQGLQWMGWISHEGDKKVIVERFKAKVTIDWDRSTNTAYLQLSGLTSEDTAVYYCAKGSKHRLRDYALYDEDGALNWAVDVDYLANLEFWGQGTAVTVSS
VL: DIVLTQSPLSLSVTPGESASISCKSSHSLQHGDRNNYLAWYVQKPGRSPQLLLDLASERASGVPDRFSGSGSEKDFTLKISRVETEDVGTYYCMQGRESPWTFGQGTKVDIK
B2: ePGDM9 (antibody, V domains shown)
VH: B1 VH
VL: B1 VL with H27Q, Q30I, L53I, E73R
B3: ePGDM5 (antibody, V domains shown)
VH: B1 VH
VL: B1 VL with I2F, S26D, L53I, E73R, S81D, T85A

Tests used:
Experiment in all cases: cell-based or functional assay
[1] = biological target: HIV Env of isolate ZM249M.PL1 (clade C) (HIV)
[2] = biological target: HIV Env of isolate ZM53M.PB12 (clade C) (HIV)
[3] = biological target: HIV Env of isolate 3817.v2.c59 (clade CD) (HIV)
[4] = biological target: HIV Env of isolate 6480.v4.c25 (clade CD) (HIV)
[5] = biological target: HIV Env of isolate 6952.v1.c20 (clade CD) (HIV)
[6] = biological target: HIV Env of isolate 231965.c01 (clade D) (HIV)
[7] = biological target: HIV Env of isolate Q23.17 (clade A) (HIV)
[8] = biological target: HIV Env of isolate P1981_C5_3 (clade G) (HIV)
[9] = biological target: HIV Env of isolate Q259.d2.17 (clade A) (HIV)
[10] = biological target: HIV Env of isolate Q769.d22 (clade A) (HIV)
[11] = biological target: HIV Env of isolate BJOX025000.01.1 (clade AE) (HIV)
[12] = biological target: HIV Env of isolate R1166.c01 (clade AE) (HIV)
[13] = biological target: HIV Env of isolate T211-9 (clade AG) (HIV)
[14] = biological target: HIV Env of isolate T235-47 (clade AG) (HIV)
[15] = biological target: HIV Env of isolate T250-4 a.k.a. CRF250 (clade AG) (HIV)
[16] = biological target: HIV Env of isolate T251-18 (clade AG) (HIV)
[17] = biological target: HIV Env of isolate T263-8 (clade AG) (HIV)
[18] = biological target: HIV Env of isolate 6535.3 (clade B) (HIV)
[19] = biological target: HIV Env of isolate 62357_14_D3_4589 (clade B) (HIV)
[20] = biological target: HIV Env of isolate 6244_13_B5_4576 (clade B) (HIV)
[21] = biological target: HIV Env of isolate 1006_11_C3_1601 (clade B) (HIV)
[22] = biological target: HIV Env of isolate TRJO4551.58 (clade B) (HIV)
[23] = biological target: HIV Env of isolate TRO.11 (clade B) (HIV)
[24] = biological target: HIV Env of isolate WEAU_d15_410_5017 (clade B) (HIV)
[25] = biological target: HIV Env of isolate CNE17 (clade BC) (HIV)
[26] = biological target: HIV Env of isolate 191084B7-19 (clade A) (HIV)
[27] = biological target: HIV Env of isolate CNE52 (clade BC) (HIV)
[28] = biological target: HIV Env of isolate CAP210.2.00.E8 (clade C) (HIV)
[29] = biological target: HIV Env of isolate HIV-001428-2.42 (clade C) (HIV)
[30] = biological target: HIV Env of isolate ZM109F.PB4 (clade C) (HIV)

Row | Binder | IC50 (µg/ml) with constrains [1] [µg/mL] | IC50 (µg/ml) with constrains [2] [µg/mL] | IC50 (µg/ml) with constrains [3] [µg/mL] | IC50 (µg/ml) with constrains [4] [µg/mL] | IC50 (µg/ml) with constrains [5] [µg/mL] | IC50 (µg/ml) with constrains [6] [µg/mL] | IC80 (µg/ml) with constrains [7] [µg/mL] | IC50 (µg/ml) with constrains [8] [µg/mL] | IC50 (µg/ml) with constrains [9] [µg/mL] | IC80 (µg/ml) with constrains [9] [µg/mL] | IC50 (µg/ml) with constrains [10] [µg/mL] | IC80 (µg/ml) with constrains [10] [µg/mL] | IC50 (µg/ml) with constrains [11] [µg/mL] | IC80 (µg/ml) with constrains [11] [µg/mL] | IC50 (µg/ml) with constrains [12] [µg/mL] | IC80 (µg/ml) with constrains [12] [µg/mL] | IC50 (µg/ml) with constrains [13] [µg/mL] | IC80 (µg/ml) with constrains [13] [µg/mL] | IC50 (µg/ml) with constrains [14] [µg/mL] | IC80 (µg/ml) with constrains [14] [µg/mL] | other results
1 | B1 | 0.014 | 0.005 | 14 | > 100 | 0.079 | 0.015 | 0.004 | 0.319 | 0.037 | 0.15 | 0.002 | 0.01 | 0.018 | 0.071 | 0.194 | 0.777 | 0.028 | 0.113 | 0.005 | 0.019 | IC50 (µg/ml) with constrains [7]: 0.001 µg/mL; IC50 (µg/ml) with constrains [15]: 0.035 µg/mL; IC80 (µg/ml) with constrains [15]: 0.14 µg/mL; IC50 (µg/ml) with constrains [16]: > 100 µg/mL; IC80 (µg/ml) with constrains [16]: > 100 µg/mL; IC50 (µg/ml) with constrains [17]: 0.025 µg/mL; IC50 (µg/ml) with constrains [18]: > 100 µg/mL; IC50 (µg/ml) with constrains [19]: 17.4 µg/mL; IC50 (µg/ml) with constrains [20]: 30.8 µg/mL; IC50 (µg/ml) with constrains [21]: 0.826 µg/mL; IC50 (µg/ml) with constrains [22]: > 100 µg/mL; IC50 (µg/ml) with constrains [23]: 0.352 µg/mL; IC50 (µg/ml) with constrains [24]: 0.003 µg/mL; IC50 (µg/ml) with constrains [25]: 0.008 µg/mL; IC50 (µg/ml) with constrains [26]: 0.001 µg/mL; IC80 (µg/ml) with constrains [26]: 0.003 µg/mL; IC50 (µg/ml) with constrains [27]: 2.83 µg/mL; IC50 (µg/ml) with constrains [28]: 0.135 µg/mL; IC50 (µg/ml) with constrains [29]: 0.003 µg/mL; IC50 (µg/ml) with constrains [30]: 0.049 µg/mL
2 | B2 | 0.002 | 0.006 | 0.16 | > 100 | 0.052 | 0.009 | 0.002 | 0.146 | 0.012 | 0.048 | 0.002 | 0.009 | 0.018 | 0.072 | 0.215 | 0.86 | 0.02 | 0.081 | 0.004 | 0.017 | IC50 (µg/ml) with constrains [15]: 0.041 µg/mL; IC80 (µg/ml) with constrains [15]: 0.163 µg/mL; IC50 (µg/ml) with constrains [16]: > 100 µg/mL; IC80 (µg/ml) with constrains [16]: > 100 µg/mL; IC50 (µg/ml) with constrains [17]: 0.015 µg/mL; IC50 (µg/ml) with constrains [18]: 57.8 µg/mL; IC50 (µg/ml) with constrains [19]: 9.51 µg/mL; IC50 (µg/ml) with constrains [20]: 12.6 µg/mL; IC50 (µg/ml) with constrains [21]: 0.588 µg/mL; IC50 (µg/ml) with constrains [22]: > 100 µg/mL; IC50 (µg/ml) with constrains [23]: 0.163 µg/mL; IC50 (µg/ml) with constrains [24]: 0.002 µg/mL; IC50 (µg/ml) with constrains [25]: 0.003 µg/mL; IC50 (µg/ml) with constrains [26]: 0.002 µg/mL; IC80 (µg/ml) with constrains [26]: 0.006 µg/mL; IC50 (µg/ml) with constrains [27]: 1.85 µg/mL; IC50 (µg/ml) with constrains [28]: 0.055 µg/mL; IC50 (µg/ml) with constrains [29]: 0.002 µg/mL; IC50 (µg/ml) with constrains [30]: 0.027 µg/mL
3 | B3 | 0.035 | 0.005 | 0.232 | > 100 | 0.033 | 0.009 | 0.004 | 0.295 | 0.013 | 0.051 | 0.003 | 0.011 | 0.018 | 0.072 | 0.166 | 0.664 | 0.025 | 0.099 | 0.005 | 0.022 | IC50 (µg/ml) with constrains [7]: 0.001 µg/mL; IC50 (µg/ml) with constrains [15]: 0.065 µg/mL; IC80 (µg/ml) with constrains [15]: 0.261 µg/mL; IC50 (µg/ml) with constrains [16]: > 100 µg/mL; IC80 (µg/ml) with constrains [16]: > 100 µg/mL; IC50 (µg/ml) with constrains [17]: 0.019 µg/mL; IC50 (µg/ml) with constrains [18]: 98.2 µg/mL; IC50 (µg/ml) with constrains [19]: 9.98 µg/mL; IC50 (µg/ml) with constrains [20]: 18.9 µg/mL; IC50 (µg/ml) with constrains [21]: 0.473 µg/mL; IC50 (µg/ml) with constrains [22]: > 100 µg/mL; IC50 (µg/ml) with constrains [23]: 0.315 µg/mL; IC50 (µg/ml) with constrains [24]: 0.001 µg/mL; IC50 (µg/ml) with constrains [25]: 0.007 µg/mL; IC50 (µg/ml) with constrains [26]: 0.001 µg/mL; IC80 (µg/ml) with constrains [26]: 0.005 µg/mL; IC50 (µg/ml) with constrains [27]: 6.14 µg/mL; IC50 (µg/ml) with constrains [28]: 0.057 µg/mL; IC50 (µg/ml) with constrains [29]: 0.003 µg/mL; IC50 (µg/ml) with constrains [30]: 0.03 µg/mL
